Target: Tom22-T1′ (Tom22 without helix H1) (human) (UniProt Q9NS69)
Assay: pull-down

Substance: Su9-TEV-DHFR-EGFP-Strep
- decrease in the binding ability against Tom22 before cleavage: 75%
